Data on 17 sequences can be found in a protein production outcome set (Wang et al. 2014).
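Further: failed if final PepcDB status was selected cloned or expressed and not failed if soluble or beyond.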

A short description of the data set: label from the status in PepcDB records.
In the case of “MDALLILGGLLLMVAGYIWVIVLAFGTGLLWGYGSLFPPVALAYIGVHWRTARKGVGLAALGCIPLVVGLALLASHDAARLEAILSLRWLKPEARPPAELAIALSGEFNGKPFAPQSGELIGGVLSLRQGHDFYAQRELQIRLPAQPLGALRLDVLPEDGGALPEVELSWLQPDQDLPEARRLLRGYTLHLDLRPKAPNRLEGEFHLSLPSDYRTTLSGHVELYTDRLRYRHGKVDLGYDSDDTLALVLRDYLQRRFASRDVSLVRAPSWRAASHARPLRIEALVAGQAQVLELTLEKNARREWTVRGDAFPALPAEPATVAAAAPPEPQALPAPGNATLDLELVQVEPQRYSQRLVKATTVRGRIAEGRFTGLDSEGRLVIRREMPGAGEASYLLRPAEIARLELLER”, the protein production result is listed as “failed”.

As for “MDAREWAMLIALSLLWGGSFFFIGVAVKELPPVTIVTLRVSLAAVALLVVCRIMGLRLPREWAVWRAFFGMGLLNNIIPFCLIVWGQTQIASGLASILNATTPLFTVIVAHFLTADEKMTGNKLAGVLIGFVGVATMIGPAAFGGSSGLWGQIAILGAAISYSFAGIFGRRFKAMGVPPLMTATGQISSSTLMLIPAALLIDKPWTLAMPGLGTWGALIGIALLSTALAYLIFFRILASAGATNLALVTFLIPVSAILLGSLILGEQLEIKHFAGMAMIAAGLAAIDGRLPVKLRSLLRNAPA”, the protein production entry is “failed”.

In the case of “MDARFLYPLESCKIIHLLRHGQALHNVEAEKDRNALLSPHLFDAPLTDHGHQQVENLRERVVSSGLLKRVELVVTSPLFRTMQTAVGVFGNEYKQSSMTSSPPILALEVARDRNGVRPPDMRRNVSEYQTLFPTIDFSQIESEEDNLWRPDVRESEEEILARGLEFMKWLWKRPEKEVAVVSHGIVLQHMLYVFANDCDLSIRHELCKRFANCEIRTVVIVDKGMASSTEN”, the protein production result is reported as “failed”.

Regarding “MDATISVVCYKSKTLSNGEHPLMLRISKDGKKKYQSLGISVNPKFWDFQKNKPKPKCPNLEYLQKIILDKKLELQKKMLEIKSDQKEYSAATLIEANEKLQVAKNVDCFYKEIIAQCEINNKCGNRLVYLNSYNSLKRFTNGKLEIPFNTINVAWLEKYEKWLRSNGNKETTISLMFRTLRSTYNKAIKERCAHLSDYPFQEYKISKFDTSTQKRAIAKTDMLKFTETSQPIGQKKYVELSKDIFIFSYLCGGINFTDIANLTQENIVNGRLHYIRQKTGKLIKIGIPQEAMQIIKKYTDESNGYLFPILNVKVHKTALQKQNRIHKIRGKVNDILKTLGKRLGIEANITTYVARHSFASVLKKSGVNIALISEALGHSDLATTQIYLDSFDNEQVDEAMKNLL”, the protein production entry is “failed”.

Consider “MDDIFTQCREGNAVAVRLWLDNTENDLNQGDDHGFSPLHWACREGRSAVVEMLIMRGARINVMNRGDDTPLHLAASHGHRDIVQKLLQYKADINAVNEHGNVPLHYACFWGQDQVAEDLVANGALVSICNKYGEMPVDKAKAPLRELLRERAEKMGQNLNRIPYKDTFWKGTTRTRPRNGTLNKHSGIDFKQLNFLTKLNENHSGELWKGRWQGNDIVVKVLKVRDWSTRKSRDFNEECPRLRIFSHPNVLPVLGACQSPPAPHPTLITHWMPYGSLYNVLHEGTNFVVDQSQAVKFALDMARGMAFLHTLEPLIPRHALNSRSVMIDEDMTARISMADVKFSFQCPGRMYAPAWVAPEALQKKPEDTNRRSADMWSFAVLLWELVTREVPFADLSNMEIGMKVALEGLRPTIPPGISPHVCKLMKICMNEDPAKRPKFDMIVPILEKMQDK”, for which the protein production entry is “failed”.

For “MDDPFASLEPLAVAPSGPEGVRAQFDQMEDIPPPRPRQPPPAQEDPVEIEVTEDGVARAFTEKYGGTLRFDHDAGRWYHWQEDHWQADTTSRAFEYCRRLARLASEGAKHSLLSTARKASFAGGVERLARADPAHAVTQEAWDRDPWLVACPGETVDLRTGRSAVPRPEDGITRRVAVAPAAQETCPTWWQFLEDATGADSSVMRFLQQWAGYSLTGITREHTLVFLYGDGGNGKSVFINTLTGLLGDYAATAGMETFTASKSDRHPTDLAMLAGARLVAASETEEGRAWAESRIKQMTGGDRITARFMRRDFFTYTPQFKLTLVGNHRPALANVKPVEPWALVVPAELETVAQQVLAEIAAAAVSDVNPFSGTLELIVEPGLTSATGWYLIGNPALHDGLAHAFLDGQSAPRIETRAGWNTLGMEFRLTWAVDAKFIGTASWFRNPGASGCPRCRPRNAQRQGVALLCLARRSEVLDRLEHHHHHH”, the protein production entry was “failed”.

Turning to “MDDSMTSIKVHCLVSCFCEIIKRRSDIDFRPFYFGLWDGDFDITEGGIISYHSENINHDHYLLWYEKLYGMKVNEWYDHAKDKDSNVETFLQLVENKPENRYVIVMVDMSLLPERENKFHQKPFPHYLMISETEKEEEWFMLDPDFRWEGNMEREKVLYSVQDNPFGGGYFIDVEEIQEPTAEMVASYFIETFKRNDNELTMELKNLIIKMANEEEGYLLSGLVAAVKQIPVLAIRKYSYEHAFAYFRETLQYSEQEFDYWCDRVEDIVQGFTNVQYRAIKMAMTNNKGMLLSIVEKLDEMNAIELQIKTELERQFLSWKEMKSNESVLVF”, the protein production entry is “failed”.

With “MDDVLRRNPLFAALDDEQSAELRASMSEVTLARGDTLFHEGDPGDRLYVVTEGKVKLHRTSPDGRENMLAVVGPSELIGELSLFDPGPRTATGTALTEVKLLALGHGDLQPWLNVRPEVATALLRAVARRLRKTNDAMSDLVFSDVPGRVARALLDLSRRFGVQSEEGIHVVHDLTQEELAQLVGASRETVNKALADFAQRGWLRLEARAVILLDVERLAKRSR”, the protein production result was “failed”.

As for “MDEFDYVRRKLIERILHLTEKQPVVRPLPGLTVGRRESPTEPSTYILPPSICIAVQGAKRVLIGEEYYVYDVENFLLNSFDVPVVAQVIEASKEKPYIGMTWEIDMEILMEIVVEQKLNTRPITSSRGTSLGKVTHQLLDAFRRMLELLDEPEHISALLPVIKKEIIYRLLVSEQGPRL”, the protein production result is “failed”.

Take “MDEKLVKEVIFSFREVQRKTHHVLAEEAANREITTTQLLAIRELQKESDLTLGELAERMKLGKSTVSGIVDRLVKAGFLKRTRNESNRRALSLELTEKGATKAAETYHVFFNRLEPILEIGEERLKEMLEMHQEIITILEREGARD”: the protein production result is “failed”.

With “MDEKRLKILEAAMEEFTEKGYQAASTNKICAKAGVSKGLIFHYFGSKEKLYIAAVSYAVDFATNEVSLEEKRWSDFVEMAIWSTKMKLDFNRKYPAIFGLIMQAYGNPPPELKGKLDGFFDKAIERSEAQMNQVLNEMQLKKDVNMDAARKVMEALFQHITEKSTVFLQRHPNATMEDFIPLANDFTEMMRIVEFGICEEKKDSGE”, the protein production entry is “failed”.

Turning to “MDENSLIYGLELQARALTPQYGESNDVCFFIATNSLKPTNQVHLIQYEEEQGSVQSKVFEHALGEVWKLNSCPRNPRLLASVYNVQKGAQVLTKAALFTLPENLNPDPEQLKSEYLPWEQVEVLDTEALGERVKTIEFHPNQDTLACVVDNKVAVMQRAESSTRVVAEVPASGSSSGSAKHTQHFTSGKWSHHHQGHQFLTLQDGNLSAYDVRDTQHCAWSINDAHGQMVRDLDCNPNKQCHLVTGGDDGYLRIWDCRMPKAPVFERSDHSHWVWCVRFNTFHDQLILSSSSDCKVLLTCAGSVSSETQVQAGLDESNFSGADAEERHKLLPDGLLQTFDQHEDSVYCAEWSNVDPWIFASLSYDGRVIISKVPKQYKYQIIF”, the protein production result is listed as “failed”.

Take “MDEQVIFTTNTSGTIASVHSFEQINLRQCSTQSRNSCVQVGNKYLFIAQAQKALINVYNLSGSFKRESVEQRLPLPEILKCLEVVENDGVQYDRIQGVNHNLPDFNLPYLLLGSTESGKLYIWELNSGILLNVKPMAHYQSITKIKSILNGKYIITSGNDSRVIIWQTVDLVSASNDDPKPLCILHDHTLPVTDFQVSSSQGKFLSCTDTKLFTVSQDATIRCYDLSLIGSKKKQKANENDVSIGKTPVLLATFTTPYSIKSIVLDPADRACYIGTAEGCFSLNLFYKLKGNAIVNLLQSAGVNTVQKGRVFSLVQRNSLTGGENEDLDALYAMGQLVCENVLNSNVSCLEISMDGTLLLIGDTEGKVSIAEIYSKQIIRTIQTLTTSQDSVGEVTNLLTNPYRLERGNLLFEGESKGKQPSNNNGHNFMKIPNLQRVIFDGKNKGHLHDIWYQIGEPEAETDPNLALPLNDFNAYLEQVKTQESIFSHIGKVSSNVKVIDNKIDATSSLDSNAAKDEEITELKTNIEALTHAYKELRDMHEKLYEEHQQMLDKQ”: the protein production result is on record as “failed”.

Regarding “MDERPEGGDAQGAREGRDARGDGEPDEVVSGELLPYDDIAGVAAASVGLHALADDLAGERRELAVELRKFFVVLRLSVRRYAALRPYSPSSVSRYLSGDLVAPDHFVATLMDDVGRELGRPLSAQARGRVTGLQRAALRSSNSRAWKVQELEDRLAAAHQDAQVARTQADAVATLLHAERQRVAGVEEERQELARTLEAHQATSGAELDVLRAQQHRVRAERDTLRRRVADLEAALAAAEHRVAEAEQRCADLEHELLTADAAAAAEESAAAEQERARQQAELGSLRDEVARLRVAAERVPETSPARGTQAPRTSVHGAEADATGPVSGDRSAAAPADVPGAASSVTIVYAGFNRAWAAWIGDRLERWGVRAVLMLWDVPADIPLIDLLRDLKLAEGRILIVVSEWYFQLGLRSHDEWNEALREVVAPDPSRFVAVSVTNAPVPSAAAVLAAVDLTDTGADEAERRLLARLVGLPGDSLPAASGGERRGPRFPAATPEVWGGVPRRNTRFTGRESLLSDAYSLLKGAEPGAGVLTLHGMSGVGKTQLAVEYVYRFSSEYDVVWWVGADNRGVFRQTLAELASRLGLSTGAEYGERLRAVRDSLRRGDPYARWLLILDGADDPDQIEDLVPTGPGHVLITSRNLKWGEHNSELLEVPVYDRPESVAFIRRRAPRLAEADADRLAEALEDLPLLLDQTAGWLNDSDLSVGEYIALLDGGIDQDVVKVSADFPIAFRTAWSILLNKVRETVPEAVDLLRLCTFFAPGLIPVRFLREMPHNELPETITGLLNDRLLWNKAIHQLRQYSVVRLESHEAATDGSTSSGESLYLHRMVHQIVRNDMPEDERHEFAAVVRRALASADPGRPTDTRHWGEYAEIVPHLKYADVLDSPDPGVQRLVLNCLGYLHLSGRYAAGVELAERALEAWRELLGDTHPVIWELTAHHTNLLRSTGDYRRTEAVDRAAVEHLREERGELDPDHLRAAAGLAADLRGLGRYGEALELTRRLLTSCLDLLGEQDSRTLDAQHDLGFSLRLLGRYEEALDVDRRTLEARRALLSGRHPGILLSETSCATDLRLLGHYAEAESAQATNARAQRAVMGSDNPQTLRAEHNLALCQYRAGDREKAGKLFSRVLERYERTLGETDPLTLAAAVSQSCFAREYGDIDQAGAASESLIARYEAMLTDGHPFTIGARANHVLLLRQVGARDEARFGAEKALTAMAAAMGESHPWTLGCAINAAAVRQFIGDVESAAELSGSTVARATDALGRTHPLTLSARVAQAADLRGLREHRRAEEIEQEVLADLAATLGSRHVHTVSARSRNRPYWDFEPQPT”, the protein production entry is on record as “failed”.

For the sequence “MDESCERVKAIYNEHEYLEAYSRHTDLRVDVDPKLAIGGMWEEIGKLQFEYLTKKGLQCHHELLDIGCGTLRGGRHFIKYLNSSNYYGVDISFKAIESAKELVVEEKLSDKKPQLLLDKNKSLNFNCYLGKTFDFIFAQSVFTHLKPEHISECFENIGQIMNEDSAFYFTYNNSVEYREVGFKNFYYPFDFFENLVERNGFKLKECKSEYAHPRGQIMVEIVKR”, the protein production entry is reported as “failed”.

Take “MDESVKSLMLPPPPPLLPPSQGYGSRKIDGDSITNKQIKKFWRQKQIIEEDHLYSAIKAAARVRARNLSDEDYKRFEESLDMEDLETEDHQGLKDWWTKSKYAYLNQPALGSADSLKRKRFSTYTPNCFSFKPCNPLYATSLNVF”: the protein production entry is given as “failed”.

As to “MDETPIFKIKKLTIAENDRSEYIRYAEKNMHDSIPAEEGTLLIGSGHDDAHGEDNYEIEVFRNKGAEDLHIAGSHADDFVETVNKIATKQKVIDLHPEVITTKAQRALNSYADNFVMRLIKVEVKDADAEKFSHAVKKEMTTSMASEPGMEIMMSGTNIDNPNEWYFIEVYANDEAYDIHVKTPHYKEYIEETDGMVKSRDVKTLVRDTLATQGAIVLD”, the protein production entry is “not failed”.
